# According to article PMC2797707 (Journal of the American Chemical Society, 2009):
# Legend:
# [1] = test system: CsoR H61A (Mycobacterium tuberculosis); experiment: fluorescence anisotropy; conditions: pH 7.0, 0.2 M NaCl, 2 mM DTT, 25 °C (buffer not stated in the material)
# [2] = target: the molecule itself
Molecule,Ka (M-1 (A2 (so in the source); ≤)) [1],stoichiometry N [2]
cso operator DNA,< 1e+10,–
H61A Mycobacterium tuberculosis CsoR (natural protein) MSKELTAKKRAALNRLKTVRGHLDGIVRMLESDAYCVDVMKQISAVQSSLERANRVMLHNALETCFSTAVLDGHGQAAIEELIDAVKFTPALTGPHARLGGAAVGESATEEPMPDASNM,–,4
